Reference: PMC4115806 (2014)

Biological target: T1, Activated protein C (Homo sapiens, UniProt P04070)
T1 chain 1: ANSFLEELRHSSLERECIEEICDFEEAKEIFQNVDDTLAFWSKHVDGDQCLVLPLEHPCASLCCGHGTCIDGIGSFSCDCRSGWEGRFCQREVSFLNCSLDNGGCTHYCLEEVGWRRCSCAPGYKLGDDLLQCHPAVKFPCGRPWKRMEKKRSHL
T1 chain 2: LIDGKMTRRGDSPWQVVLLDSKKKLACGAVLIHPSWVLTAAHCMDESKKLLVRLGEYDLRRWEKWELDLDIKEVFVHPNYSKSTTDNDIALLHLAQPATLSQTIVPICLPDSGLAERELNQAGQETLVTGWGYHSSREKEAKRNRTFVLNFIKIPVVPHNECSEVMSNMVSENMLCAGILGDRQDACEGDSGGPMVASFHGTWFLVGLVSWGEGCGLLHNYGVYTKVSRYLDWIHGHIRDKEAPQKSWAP
Assay: flow cytometry

- Kd: 77 nM
B1: Endothelial protein C receptor (protein)
chain: SQDASDGLQRLHMLQISYFRDPYHVWYQGNASLGGHLTHVLEGPDTNTTIIQLQPLQEPESWARTQSGLQSYLLQFHGLVRLVHQERTLAFPLTIRCFLGCELPPEGSRAHVFFEVAVNGSSFVSFRPERALWQADTQVTSGVVTFTLQQLNAYNRTRYELREFLEDTCVQYVQKHISAENTKGSQTSRSYTS
modifications: fluorescently labelled APC
